The record followed here is paper PMC2686680, “Chibby forms a homodimer through a heptad repeat of leucine residues in its C-terminal coiled-coil motif” (BMC Molecular Biology, 2009).

This data set deals with the molecule itself. The data set is described as follows: SEC; His-Cby purified from stable HEK293T on Superdex 75 FPLC, 20 mM Tris-HCl pH 8.0, 1.0 M NaCl, 1 mM EDTA, 2 mM DTT, 2 mM betaine-HCl, 0.02% Triton X-100, 5% glycerol; fractions blotted with anti-Cby. For orientation: Size exclusion chromatography separates by hydrodynamic size, large species first.

B1: His-tagged Cby wild type (natural protein, human, UniProt Q9Y3M2 1-126, looked up)
chain: MPFFGNTFSPKKTPPRKSASLSNLHSLDRSTREVELGLEYGSPTMNLAGQSLKFENGQWIAETGVSGGVDRREVQRLRRRNQQLEEENNLLRLKVDILLDMLSESTAESHLMEKELDELRISRKRK
notes: Chibby (Cby), human, 126 amino acids; Cby cDNA in pcDNA4/HisMax A; the vector pcDNA4/HisMax A probably adds further N-terminal residues besides the His tag (surmise); also called His-Cby; His-CbyWT; source: transiently transfected for cross-linking), purified (nickel beads / Ni-NTA)
Regarding B1, the “stoichiometry N” value was 2.

In general, stoichiometry N refers to the number of molecules, sites or subunits per partner or assembly.
